Test results from patent US10495630B2, “Methods for the determination of compounds or compositions for the treatment of lipofuscin related diseases and compounds or compositions” (KATAIRO GMBH, priority 2014, dated 2019).

Tested on: Abca4 (−/−) mice
Assay: A2E concentration in eyes of Abca4 (−/−) mice after intravitreal injection, HPLCMSMS
Format: in vivo
Details: redox active and chelating protein; intravitreal 2 μl of 20 mg/ml; one week after injection
From the text: […] […] The left eye was not treated and maintained as a control. Untreated eyes of age-matched mice lacking the Abca4 transporter were an additional control.
The concentration in each treated eye was then expressed as a percentage of the average concentration in all untreated eyes in the mice of the same age.
The left eye was not treated and maintained as a control. Untreated eyes of age-matched mice lacking the Abca4 transporter were an additional control.
The left eye was not treated and maintained as a control. Untreated eyes of age-matched mice lacking the Abca4 transporter were an additional control. […] Tryptophan is capable of absorbing and re-radiating light energy, as is riboflavin.
Water solutions were diluted 1:3 with acetonitrile and then sealed in vials for injection. 6 μL of the water acetonitrile solutions were injected onto a 2×50 mm Phenyl derived HPLC column (3 μm) and eluted with a gradient from 20% acetonitrile to 100% acetonitrile over 4 minutes at a flow rate of 500 μL/minute.

B1: Lactoferrin: protein capable of binding iron with high affinity (protein, UniProt P02788 20-710, looked up)
Lactotransferrin: GRRRSVQWCAVSQPEATKCFQWQRNMRKVRGPPVSCIKRDSPIQCIQAIAENRADAVTLDGGFIYEAGLAPYKLRPVAAEVYGTERQPRTHYYAVAVVKKGGSFQLNELQGLKSCHTGLRRTAGWNVPIGTLRPFLNWTGPPEPIEAAVARFFSASCVPGADKGQFPNLCRLCAGTGENKCAFSSQEPYFSYSGAFKCLRDGAGDVAFIRESTVFEDLSDEAERDEYELLCPDNTRKPVDKFKDCHLARVPSHAVVARSVNGKEDAIWNLLRQAQEKFGKDKSPKFQLFGSPSGQKDLLFKDSAIGFSRVPPRIDSGLYLGSGYFTAIQNLRKSEEEVAARRARVVWCAVGEQELRKCNQWSGLSEGSVTCSSASTTEDCIALVLKGEADAMSLDGGYVYTAGKCGLVPVLAENYKSQQSSDPDPNCVDRPVEGYLAVAVVRRSDTSLTWNSVKGKKSCHTAVDRTAGWNIPMGLLFNQTGSCKFDEYFSQSCAPGSDPRSNLCALCIGDEQGENKCVPNSNERYYGYTGAFRCLAENAGDVAFVKDVTVLQNTDGNNNEAWAKDLKLADFALLCLDGKRKPVTEARSCHLAMAPNHAVVSRMDKVERLKQVLLHQQAKFGRNGSDCPDKFCLFQSETKNLLFNDNTECLARLHGKTTYEKYLGPQYVAGITNLKKCSTSPLLEACEFLRK
% of A2E relative to age matched untreated: 63% | Concentration A2E (μM) in the treated eye: 20 µM
